Laboratory results taken from US10894036B2, “Use of marizomib for the treatment of central nervous system (CNS) cancers” (Celgene International II Sàrl, priority 2016, dated 2021).

Experiment: Phase 1/2 MRZ + BEV and MRZ monotherapy in recurrent G4 MG: adverse events, DLT
Conditions: for Ataxia: Treatment Related Grade ≥3 AE, # patients / Confusional State: Treatment Related Grade ≥3 AE, # patients / Delusion: Treatment Related Grade ≥3 AE, # patients / Dyspnea: Treatment Related Grade ≥3 AE, # patients / Embolism: Treatment Related Grade ≥3 AE, # patients / Fall: Treatment Related Grade ≥3 AE, # patients / Fatigue: Treatment Related Grade ≥3 AE, # patients / Hallucination: Treatment Related Grade ≥3 AE, # patients / Headache: Treatment Related Grade ≥3 AE, # patients / Hypertension: Treatment Related Grade ≥3 AE, # patients / Hyponatremia: Treatment Related Grade ≥3 AE, # patients / Insomnia: Treatment Related Grade ≥3 AE, # patients / Intracranial Hemorrhage: Treatment Related Grade ≥3 AE, # patients / Optic Nerve Disorder: Treatment Related Grade ≥3 AE, # patients / Proteinuria: Treatment Related Grade ≥3 AE, # patients: attributed to labelled agent
[1] = MRZ 0.7 mg/m^2 + BEV, Cohort 2, N = 3
[2] = MRZ 0.7 mg/m^2 Cohort 2 (N = 3)
[3] = MRZ 0.8 mg/m^2 + BEV, Cohorts 3 & 4, N = 27
[4] = MRZ 0.8 mg/m^2 + BEV, N = 27, related to the labelled drug
[5] = MRZ 0.8 mg/m^2 Cohorts 3 & 4 (N = 27)

Description: The clinical trial was a Phase 1, dose-escalation (3+3 design) followed by dose-expansion at recommended Phase 2 Dose (RP2D).
The drugs were infused on 28-Day Cycles. Tumor response is assessed every other cycle by RANO criteria.
The safety data will be presented in individual listings and summary tables, including frequency tables for adverse events and frequency and shift tables for laboratory variables. The safety population will be all subjects who received at least one dose of either study drug in Phase 1 or MRZ in Phase 2.

bevacizumab [reference compound]
Confusional State, Treatment Related Grade ≥3 AE, patients [1]: 0
Delusion, Treatment Related Grade ≥3 AE, patients [1]: 0
Dyspnea, Treatment Related Grade ≥3 AE, patients [1]: 0
Embolism, Treatment Related Grade ≥3 AE, patients [1]: 0
Fall, Treatment Related Grade ≥3 AE, patients [1]: 0
Fatigue, Treatment Related Grade ≥3 AE, patients [1]: 0
Hallucination, Treatment Related Grade ≥3 AE, patients [1]: 0
Headache, Treatment Related Grade ≥3 AE, patients [1]: 0
Hypertension, Treatment Related Grade ≥3 AE, patients [1]: 1
Hyponatremia, Treatment Related Grade ≥3 AE, patients [1]: 0
Insomnia, Treatment Related Grade ≥3 AE, patients [1]: 0
Intracranial Hemorrhage, Treatment Related Grade ≥3 AE, patients [1]: 0
Optic Nerve Disorder, Treatment Related Grade ≥3 AE, patients [1]: 0
Proteinuria, Treatment Related Grade ≥3 AE, patients [1]: 1
Ataxia, Treatment Related Grade ≥3 AE, patients (MRZ 0.7 mg/m^2 + BEV, Cohort 2, N = 3, related to the labelled drug): 0
Ataxia: Treatment Related Grade ≥3 AE, # patients [2]: 0
Confusional State: Treatment Related Grade ≥3 AE, # patients [2]: 0
Delusion: Treatment Related Grade ≥3 AE, # patients [2]: 0
Dyspnea: Treatment Related Grade ≥3 AE, # patients [2]: 0
Embolism: Treatment Related Grade ≥3 AE, # patients [2]: 0
Fall: Treatment Related Grade ≥3 AE, # patients [2]: 0
Fatigue: Treatment Related Grade ≥3 AE, # patients [2]: 0
Hallucination: Treatment Related Grade ≥3 AE, # patients [2]: 0
Headache: Treatment Related Grade ≥3 AE, # patients [2]: 0
Hypertension: Treatment Related Grade ≥3 AE, # patients [2]: 1
Hyponatremia: Treatment Related Grade ≥3 AE, # patients [2]: 0
Insomnia: Treatment Related Grade ≥3 AE, # patients [2]: 0
Intracranial Hemorrhage: Treatment Related Grade ≥3 AE, # patients [2]: 0
Optic Nerve Disorder: Treatment Related Grade ≥3 AE, # patients [2]: 0
Proteinuria: Treatment Related Grade ≥3 AE, # patients [2]: 1
Fatigue, treatment-related AE, patients (MRZ 0.8 mg/m^2 + BEV Cohorts 3 & 4, N = 27, related to the labelled drug (MRZ + BEV = related to both)): 18 (66.7%)
Confusional State, Treatment Related Grade ≥3 AE, patients [3]: 0
Delusion, Treatment Related Grade ≥3 AE, patients [3]: 0
Dyspnea, Treatment Related Grade ≥3 AE, patients [3]: 1
Embolism, Treatment Related Grade ≥3 AE, patients [3]: 1
Fall, Treatment Related Grade ≥3 AE, patients [3]: 0
Fatigue, Treatment Related Grade ≥3 AE, patients [3]: 1
Hallucination, Treatment Related Grade ≥3 AE, patients [3]: 0
Headache, Treatment Related Grade ≥3 AE, patients [3]: 1
Hypertension, Treatment Related Grade ≥3 AE, patients [3]: 5
Hyponatremia, Treatment Related Grade ≥3 AE, patients [3]: 0
Insomnia, Treatment Related Grade ≥3 AE, patients [3]: 0
Intracranial Hemorrhage, Treatment Related Grade ≥3 AE, patients [3]: 1
Optic Nerve Disorder, Treatment Related Grade ≥3 AE, patients [3]: 1
Proteinuria, Treatment Related Grade ≥3 AE, patients [3]: 0
Ataxia, Treatment Related Grade ≥3 AE, patients (MRZ 0.8 mg/m^2 + BEV, Cohorts 3 & 4, N = 27, related to the labelled drug): 0
Anaemia, treatment-related AE, patients [4]: 0 (0.0%)
Ataxia, treatment-related AE, patients [4]: 0 (0.0%)
Confusional state, treatment-related AE, patients [4]: 1 (3.7%)
Constipation, treatment-related AE, patients [4]: 1 (3.7%)
Diarrhoea, treatment-related AE, patients [4]: 1 (3.7%)
Dizziness, treatment-related AE, patients [4]: 1 (3.7%)
Dysphonia, treatment-related AE, patients [4]: 10 (37.0%)
Epistaxis, treatment-related AE, patients [4]: 7 (25.9%)
Fall, treatment-related AE, patients [4]: 0 (0.0%)
Hallucination, treatment-related AE, patients [4]: 0 (0.0%)
Headache, treatment-related AE, patients [4]: 6 (22.2%)
Infusion site pain, treatment-related AE, patients [4]: 1 (3.7%)
Muscular weakness, treatment-related AE, patients [4]: 1 (3.7%)
Platelet count decreased, treatment-related AE, patients [4]: 3 (11.1%)
Upper-airway cough syndrome, treatment-related AE, patients [4]: 5 (18.5%)
Ataxia: Treatment Related Grade ≥3 AE, # patients [5]: 0
Confusional State: Treatment Related Grade ≥3 AE, # patients [5]: 0
Delusion: Treatment Related Grade ≥3 AE, # patients [5]: 0
Dyspnea: Treatment Related Grade ≥3 AE, # patients [5]: 1
Embolism: Treatment Related Grade ≥3 AE, # patients [5]: 1
Fall: Treatment Related Grade ≥3 AE, # patients [5]: 0
Fatigue: Treatment Related Grade ≥3 AE, # patients [5]: 1
Hallucination: Treatment Related Grade ≥3 AE, # patients [5]: 0
Headache: Treatment Related Grade ≥3 AE, # patients [5]: 1
Hypertension: Treatment Related Grade ≥3 AE, # patients [5]: 5
Hyponatremia: Treatment Related Grade ≥3 AE, # patients [5]: 0
Insomnia: Treatment Related Grade ≥3 AE, # patients [5]: 0
Intracranial Hemorrhage: Treatment Related Grade ≥3 AE, # patients [5]: 1
Optic Nerve Disorder: Treatment Related Grade ≥3 AE, # patients [5]: 1
Proteinuria: Treatment Related Grade ≥3 AE, # patients [5]: 0
Anaemia: # pts, related to BEV (MRZ+BEV, 12 Sep. 2016): 0
Anxiety: # pts, related to BEV (MRZ+BEV, 12 Sep. 2016): 0
Aphasia: # pts, related to BEV (MRZ+BEV, 12 Sep. 2016): 0
Appendicitis Perforated: # pts, related to BEV (MRZ+BEV, 12 Sep. 2016): 0
Asthenia: # pts, related to BEV (MRZ+BEV, 12 Sep. 2016): 0
Ataxia: # pts, related to BEV (MRZ+BEV, 12 Sep. 2016): 0
Confusional State: # pts, related to BEV (MRZ+BEV, 12 Sep. 2016): 0
Constipation: # pts, related to BEV (MRZ+BEV, 12 Sep. 2016): 0
Convulsion: # pts, related to BEV (MRZ+BEV, 12 Sep. 2016): 0
Delusion: # pts, related to BEV (MRZ+BEV, 12 Sep. 2016): 0
Depressed Level of Consciousness: # pts, related to BEV (MRZ+BEV, 12 Sep. 2016): 0
Diarrhoea: # pts, related to BEV (MRZ+BEV, 12 Sep. 2016): 0
Dizziness: # pts, related to BEV (MRZ+BEV, 12 Sep. 2016): 0
Dysarthria: # pts, related to BEV (MRZ+BEV, 12 Sep. 2016): 0
Dysphagia: # pts, related to BEV (MRZ+BEV, 12 Sep. 2016): 0
Dysphonia: # pts, related to BEV (MRZ+BEV, 12 Sep. 2016): 10
Dyspnoea: # pts, related to BEV (MRZ+BEV, 12 Sep. 2016): 0
